In the supplement of paper PMC9942255:
“And” between values parts separate entries of the source, which are not always exact repeats. Equal values may be shown once.

System: Bacillus subtilis DB104 (SP-AmyQ fusion secretion)
Test: AmyQ secretion efficiency, weighted average sort bin (1 = best secretion, 10 = worst) (bin number (weighted average, 1-10)); higher = lower secretion efficiency
Procedure, shortened: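 B. subtilis DB104 library expressing mature AmyQ fused to designed signal peptides (amyE-integrated) was encapsulated at about 0.3 cells per ~65 nL alginate bead with fluorescein-starch, grown about 13 h at room temperature and nile red stained. Occupied beads were sorted by large-particle flow cytometry into 10 equally populated bins by green/red fluorescence ratio, and each bin's amplicons were Illumina-sequenced. Secretion score is the read-frequency-weighted average bin number, normalised to beads per bin, excluding low-abundance sequences.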

| Sequence | AmyQ secretion efficiency |
| --- | --- |
| MKRLKKTLLIGIMLLTFAPSAFAKQD | 1.92 |
| MKNMSCKLVVSVTLFFSFLTIGPLSHAQNS | 2.11 |
| MKRKKVLLSALLLLLFAFEPSASGKKL | 2.93 |
| MRKKRVITCVMAASLTLGSLLPAGYVTAKED | 2.51 |
| MPYLKRVLLLLVTGLFMSLFAVTATASAEDD | 3.73 |
| MKRLLSTLLIGIMLLTFAPSAFWKQD | 6.93 |
| MLKKIALTLCPAIVGSLLFFTAPLSAHVS | 3.94 |
| MKKKLAAGLTASAIVGTTLVVTPDEAATI | 5.54 |
| MRKKLKWLSFLLGFIILLFLFKYQFSPNDS | 6.63 |
| MFKKLLLATSALTFSLSLVLVLSIHAKAQEV | 3.44 |
| MKLSVKIAGVLTVAAAAMTAKMYVTAKGN | 8.14 |
| MKKKRALTLCPAIVGSLLFFTAPASAHVS | 3.92 |
| MKRLCLWFTVFSLFLVLLPGKALGKKR | 2.36 |
| MPKKCSVCLWILVLLLSCLSGKSAYAATS | 2.99 |
| MRKIIGWILLLCIIPLFAFTVIASGKEV | 7.63 |
| MKVPKTMLLSTAAGLLLSLTATSVSAEEE | 2.6 |
| MTMLRKIIGWILLLCIIPLFAFTVIASTKEV | 7.17 |
| MKKSMLAAAVLLSLGLVFGFSYGAGHVAEAKTK | 2.84 |
| MLKKIALTLCPAIVGSLLFFTAPAPVAVASFAAAASAHVS | 5.09 |
| MGLGKKLSVAVAASFMSLSISLPGVQHAEG | 3.41 |
| MKQIMIFLTSFMLLARRRRKKALAKDV | 7.64 |
| MKLSVKIAGVLTVAAAAMTAKMYATAAGD | 6.46 |
| MKSKWMSGLLLVAVGFSFTLFSSAVVSTQVMVHAGET | 7.18 |
| MRNLTKTSLLLAGLCTAAQMVFVTHGSAEES | 4.68 |
| MGKWIYVVLVLSIAGIGGFSVHAASS | 6.5 |
| MRFTKVVGFLSVLGLAAVFPLTAQAADD | 3.85 |

| Sequence | AmyQ secretion efficiency |
| --- | --- |
| MKKRFSLIMMTGLLFGLTEEEAFAAEK | 2.39 |
| MRSYIKVLTMCFLGLILFVPTVLADNS | 2.19 |
| MRFTKVVGFLSVLGLAAVFPLTAQAAKR | 5.46 |
| MRKKLKWLSFLLGFIILLFLFKYQASNNDS | 7.34 |
| MRKKRVITCVMAASLTLGSLLPAGYATADDE | 4.08 |
| MKRLTLVCSIVFILFILFYDKDEASAKTA | 1.77 |
| MMKKLFHSTLIVLLFFSFFGVKRKIHAKKQ | 3.3 |
| MPIKKKVMMCLAVTLVFGSMSFPTLTNEGGFKE | 4.78 |
| MKKAAAVLLSLGLVFGFSYGAGHVNEAKTK | 5.96 |
| MKLSVKIAGVLTVAATAKMYATAKGN | 7.17 |
| MKSKGSIMACLILFSFTITTFINTETISPFSN | 7.51 |
| MNKLKRLSMLTVMIASVFIFSSSALAAQY | 2.06 |
| MRGKSAVLLSLIMLIAGFLIEFSFQM | 8.38 |
| MKRKIVRMTLPLLIVCLAFSSFSASARAASE | 2.21 |
| MMSLLVSLRVWMVFLMNWVTPDRKTAAAAVY | 5.61 |
| MAIIIAIIAAVIVIAALITFNVRNWSPG | 8.18 |
| MFNRLFRVCFLAALIMAFTLPNSAYAQKP | 2.14 |
| MRKKLKWLSFLLGFIILLFLFKYQGSNNDS | 5.93 |
| MMTLCVMMLLFSAIASFPVSAQAKDQ | 7.11 |
| MKKSQYFIVFICFFVLFSVHPIAFTPSAAAADS | 2.09 |
| MRKRTKTSLLLAGLCTAAQMVFVTHASAEES | 3.51 |
| MKKWIYVVLVLSIAGIGGFSVHRASS | 6.42 |
| MKLAKRVSALTPSTTLAITAKTKEL | 7.68 |
| MKKVLMAFIICLSLILSVLAAPPSGSKAESV | 3.67 |
| MKVCQKSIKRFLVSLIIGTFVISVPFMANAQSD | 1.93 |
| MKKRLIAPMLLSAASLAFFAMSGSAQKAAY | 6.67 |

| Sequence | AmyQ secretion efficiency |
| --- | --- |
| MNKLKRLSMLTVMIASVFIFSSHQLAAQY | 4.72 |
| MGSTSFILWISLLFALTLIFTMAFSNMSAQAAGK | 6.79 |
| MIVIILLFISIIVFLSVIQPQPS | 8.27 and 5.9 and 6.5 |
| MKLSVKRGTTLTVAAAAMTAKMYATAKGN | 7.06 |
| MMSLLAAGIIGLLTVSIASPSFAAEK | 5.23 |
| MKKKRLFIFSAILTLSIFAPNETFAQTA | 2.43 |
| MKQGKFSVFLILLLMLTLVVTIFAALVIAPKEKAEAASS | 3.57 |
| MKKGIIRFRRKKFVLFFALSTGITGVQAAPA | 4.49 |
| MNLRKILLSSALSLGMLVSAAPVLLTSS | 7.26 |
| MKSLPYTIALLFCGLIIVSMAAKGHST [wt_52] | 6.6 |
| MRSKKLWISLLFALTLIFTMAFSNMSAQPAGK | 3.56 |
| MKKWMITIAMLKRRRIALFVFISPLKSHKT | 7.36 |
| MRKYTVIASILLSFLSVLSGGHHEVATSKAFPV | 3.74 |
| MKKRKRRVVLVLSIAGIGGFSVHAASS | 7.17 |
| MKKLLAAGIIGLLTVSIASPHFAAEK | 7.4 |
| MRKKKLWISLLFALTLIFTMAFSNMSAQAAGK | 2.97 |
| MPYLKRVLLLLVTGLFMSLFFLIAVTATASAQTG | 1.09 |
| MKTLRTLCVLMILSGVIFFGLKDIDAKDI | 6.44 |
| MKKFFGPIILAFILFAGAIAIPS | 6.93 |
| MRSKKLWISLLFALTLIFVMAFGNMTAQAAGK | 1.9 |
| MRNRRKTSLLLAGLCTAAQMVFVTHASAEES | 3.33 |
| MRKRKILLSSALSLGMLVSAAPVLATSS | 2.04 |
| MPYLKRVLLLLVTGLFMSLFAVTATPSAQTG | 4.75 |
| MTMLRKIIGWILLLCIIPLFAFTVICSGKEV | 7.14 |
| MRSYIKFNFIISVLTMCFLGLILFVPTALADNS | 1.36 |
| MKKRRLIGFLVLVPALIMSGITLIEANKK | 6.64 |

| Sequence | AmyQ secretion efficiency |
| --- | --- |
| MLCVMMLLFSAIASFPVSMQAKDQ | 5.6 |
| MKKQIITATTAVVLGSTLFADDEASAQSI | 2.17 |
| MLKRTSFVSSLFISSAVLLSILLPSGQTHAQSA | 1.61 |
| MKRITINIITMFIAAAVIFLVVFTSSGTAEAAEK | 2.77 |
| MMLMMSVSMFLVALTMCGGLFVTPAKAVKT | 4.77 |
| MAIIIAIIAAVIVIAALINVRNASPG | 8.6 |
| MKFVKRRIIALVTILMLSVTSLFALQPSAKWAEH | 5.19 |
| MKKRLIGFLVLVPALIMSGITLIEANSE | 7.68 |
| MKWMCSICCAAVLLAGESAQAEAV | 3.16 |
| MNKPTKLKKKKALAAGMTAAAAGGAGTIHAQQP | 8.12 |
| MLKKIALTLCPAIVGSLLFFTAPKSAHVS | 5.03 |
| MLKKKWMVGLLAGCLAAGGFSYNAFYTEN | 6.38 |
| MKSKWMSGLLLVAVGFSFTQVMTHAGET | 7.1 |
| MKKRITYSLLALLAVVAFAFFSIAGAKAAEA | 4.27 |
| MTKLKMLSMLTVMIASLFIFSKKRRRKALAVQY | 7.47 |
| MKKRKRRNFKRFIAAFLVLALMISLVPADILAKST | 1.87 |
| MNLRKILLSSALSLGMLVSAAPVLVTSS | 6.87 |
| MRFTKVVGFLSVLGLAAVFPLTASSAAQAEKA | 1.25 |
| MKNMSCKLVVSVTLFFSFLTIGPLAHQQNS | 5.78 |
| MKRKLLSSLAISALSLGLLVSAPTATFAAES | 3.04 |
| MKRLFMKASLVLFAVVFVFAVKGAPAKAATH | 1.71 |
| MKLSVKIAGVLTVAAAAMTAKMYATGKGN | 6.84 |
| MKRTWNVCLTALLSVLLVAGSVPFHAEAAPK | 2.29 |
| MKKLLAAGIIGLLTVSIASPYFAAEK | 6.19 |
| MRKKTKNRLISSVLSTVVISSLLFPQEAGASSK | 1.83 |
| MFNRLFRVCFLAALIMAFTLPNSKYAQKP | 6.56 |

| Sequence | AmyQ secretion efficiency |
| --- | --- |
| MFNRLFRVCFLAALIMAFTLPNSVYVQKP | 6.52 |
| MKMKSGMEQAVSVLLLLSRLPVQYSLTSE | 5.01 |
| MRKTIFAFLTGLMMFGTITASPSTASASPD | 2.04 |
| MKKGIIRFLLVSFVLFFALSTGITGFQAAPA | 5.1 |
| MNLRKILLSSALSLGMLVSAAPVLNTSS | 5.87 |
| MKRFILVLSFLSIIVLVTSASSFLAYPIQTNASPM | 5.04 |
| MRNLTKTSLLLAGLCTAAIMVFVIHASAEES | 5.76 |
| MKWMCSICCAAVLLAGGAAQHEAV | 8.16 |
| MKNMSCKLVVSVTLFFSFLTAHAQNS | 6.96 |
| MKKRLIAPMLLSAASLAFFAMSGSAQAAAE | 2.56 |
| MGSGTSMLFSTLALAAGMTAAAAGGAGTIHAQQP | 2.01 |
| MKRMIVRMTLPLLIVCLAFSTSFSASARAASE | 2.38 |
| MRKKKRRVLLLLVTGLFMSLFAVTATASAQTG | 1.06 |
| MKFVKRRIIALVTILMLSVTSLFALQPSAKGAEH | 3.59 |
| MNKPTKLFILLALAALMFAAAAGGAGTIHAQQP | 1.87 |
| MKFVKRRIRKKRRRLMLSVTSLFALQPSAKAAEH | 6.62 |
| MKKIMSAFVGMVLLTIFCFSPQASAAYD | 4.89 and 4.8 |
| MKVPKTMLLSTAAGLLTATSVSAHYV | 6.58 |
| MKKLVLCVSILAVILSGVYLTQLS | 5.92 |
| MGSSLAAGLTASAIVGTTLVVTPAEAATI | 4.99 |
| MKRIRIPMTLALGAALTIAPLSFWSAEEN | 6.56 |
| MKKSQYFIVFICFFVLFSVHPIAEAAADS | 3.62 |
| MKKRRIVSILFMFGLVMGFSQFQPSTVFAADK | 2.46 |
